Measured values as given in PMC9628480, “Discovery and structural characterization of chicoric acid as a SARS-CoV-2 nucleocapsid protein ligand and RNA binding disruptor”.

Experiments:
N protein CTD = N protein CTD (SARS-CoV-2, UniProt A0A6B9VLF5 250-364); assay: fluorescence polarization; settings: protein: recombinant; tags: SUMO tag (pET-SUMO) cleaved; chain copies: 2; label: 5'-FITC; hairpin
N protein NTD = N protein NTD (SARS-CoV-2, UniProt A0A6B9VLF5 43-174); assay: fluorescence polarization; settings: protein: recombinant; tags: SUMO tag (pET-SUMO) cleaved; label: 5'-FITC; hairpin

B1: RNA1 (structured_RNA)
RNA: CACUCACUGUCUUUUUUGAUGGUAGAGU
N protein CTD
  binding result: no binding
N protein NTD
  binding result: no binding
